Data on 9 molecules can be found in US20170355766A1 (Xencor, published 2017).

What all share (test): SPR (Biacore)
The target of assay [1] is T1, human V158 FcγRIIIa receptor protein (6xHis and GST tags) (human, UniProt P08637 17-208, limits assumed).
T1 construct: also called VIIIa

For the next assay, the target named is T2, FcγRIIaR (human, UniProt P12318).
T2 construct: recombinant receptor protein with 6xHis and GST tags; also called R131 FcγRIIa
T2 sequence (receptor, looked up): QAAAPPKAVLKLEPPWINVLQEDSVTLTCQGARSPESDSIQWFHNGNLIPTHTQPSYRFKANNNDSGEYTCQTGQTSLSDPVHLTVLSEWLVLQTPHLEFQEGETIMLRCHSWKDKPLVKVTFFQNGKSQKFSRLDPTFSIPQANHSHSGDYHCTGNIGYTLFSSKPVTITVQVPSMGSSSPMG

Assay [2] addresses T3, human FcγRIIb receptor protein (R&D Systems) (human, UniProt P31994 46-217).
T3 construct: Analyte injected over antibodies captured on a protein A/G chip (Biacore); also called CD32b
T3 sequence (looked up): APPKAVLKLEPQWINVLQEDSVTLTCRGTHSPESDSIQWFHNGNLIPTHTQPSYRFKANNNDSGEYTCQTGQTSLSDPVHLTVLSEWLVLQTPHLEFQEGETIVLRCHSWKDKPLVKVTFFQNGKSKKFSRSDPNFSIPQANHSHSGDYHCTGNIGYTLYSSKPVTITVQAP

In assay [3] the target is T4, human H131 FcγRIIa receptor protein (6xHis and GST tags) (human, UniProt P12318 34-217, limits assumed).
T4 construct: also called HIIa
T4 sequence (looked up): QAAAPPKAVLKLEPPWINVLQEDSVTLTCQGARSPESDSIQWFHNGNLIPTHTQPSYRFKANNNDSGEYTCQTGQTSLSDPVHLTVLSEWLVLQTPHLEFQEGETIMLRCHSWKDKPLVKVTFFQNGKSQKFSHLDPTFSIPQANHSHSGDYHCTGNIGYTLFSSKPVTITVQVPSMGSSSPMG

Assay [4] concerns the target T5, human FcγRI receptor protein (R&D Systems) (human, UniProt P12314 16-288).
T5 construct: also called CD64

T1 sequence (P08637 17-208 F176V limits assumed): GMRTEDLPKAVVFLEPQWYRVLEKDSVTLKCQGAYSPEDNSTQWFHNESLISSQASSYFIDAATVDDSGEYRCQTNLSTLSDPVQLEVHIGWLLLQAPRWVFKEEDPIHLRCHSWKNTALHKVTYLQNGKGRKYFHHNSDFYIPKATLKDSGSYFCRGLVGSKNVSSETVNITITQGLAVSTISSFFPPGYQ
T5 sequence (P12314 16-288 limits assumed): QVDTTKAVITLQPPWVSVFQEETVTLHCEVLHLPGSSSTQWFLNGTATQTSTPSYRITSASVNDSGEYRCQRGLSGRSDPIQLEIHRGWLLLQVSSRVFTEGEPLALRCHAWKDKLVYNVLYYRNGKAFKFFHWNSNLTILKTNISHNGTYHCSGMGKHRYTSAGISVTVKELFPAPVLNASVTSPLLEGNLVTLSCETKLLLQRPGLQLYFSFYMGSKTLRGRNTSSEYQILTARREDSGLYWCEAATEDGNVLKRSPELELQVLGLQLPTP

B1: G237D/S267E (antibody, human IgG1, kappa)
heavy: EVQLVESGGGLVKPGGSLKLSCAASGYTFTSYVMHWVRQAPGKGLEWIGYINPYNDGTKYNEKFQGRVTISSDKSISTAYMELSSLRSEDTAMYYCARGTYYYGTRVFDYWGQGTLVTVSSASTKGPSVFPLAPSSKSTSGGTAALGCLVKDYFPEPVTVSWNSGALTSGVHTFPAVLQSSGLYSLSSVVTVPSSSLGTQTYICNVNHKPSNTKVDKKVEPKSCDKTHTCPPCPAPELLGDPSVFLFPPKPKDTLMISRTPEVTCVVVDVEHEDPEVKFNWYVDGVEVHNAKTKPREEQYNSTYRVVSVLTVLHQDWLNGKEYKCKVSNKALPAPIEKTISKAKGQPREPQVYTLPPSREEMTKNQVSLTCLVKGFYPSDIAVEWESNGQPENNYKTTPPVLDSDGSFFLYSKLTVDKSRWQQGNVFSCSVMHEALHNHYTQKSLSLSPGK
light: DIVMTQSPATLSLSPGERATLSCRSSKSLQNVNGNTYLYWFQQKPGQSPQLLIYRMSNLNSGVPDRFSGSGSGTEFTLTISSLEPEDFAVYYCMQHLEYPITFGAGTKLEIKRTVAAPSVFIFPPSDEQLKSGTASVVCLLNNFYPREAKVQWKVDNALQSGNSQESVTEQDSKDSTYSLSSTLTLSKADYEKHKVYACEVTHQGLSSPVTKSFNRGEC
notes: HuAM4G7 IgG1 Fc variant
B1: the binding result in assay [1] and in assay [3] was “no binding” throughout. Further, the “Fold FcγRIIaR” value in the assay with FcγRIIaR came to 13.6 fold. Moreover, the “Fold FcγRIIb” value in assay [2] was 17 fold. In addition, the “Fold FcγRI” value in assay [4] was 0.0874 fold.

B2: L235A (antibody, human IgG1, kappa)
heavy: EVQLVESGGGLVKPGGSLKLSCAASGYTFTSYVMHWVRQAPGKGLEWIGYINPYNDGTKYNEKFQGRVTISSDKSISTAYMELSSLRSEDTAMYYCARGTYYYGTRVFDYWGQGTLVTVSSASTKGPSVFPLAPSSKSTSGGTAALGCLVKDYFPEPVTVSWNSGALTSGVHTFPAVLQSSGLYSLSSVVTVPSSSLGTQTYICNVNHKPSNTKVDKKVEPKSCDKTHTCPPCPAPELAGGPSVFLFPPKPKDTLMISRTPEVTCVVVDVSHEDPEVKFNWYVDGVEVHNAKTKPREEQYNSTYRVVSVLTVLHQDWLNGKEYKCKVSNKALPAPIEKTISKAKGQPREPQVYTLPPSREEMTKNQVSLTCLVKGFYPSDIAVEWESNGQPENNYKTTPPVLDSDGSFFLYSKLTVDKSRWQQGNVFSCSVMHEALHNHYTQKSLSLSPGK
light: DIVMTQSPATLSLSPGERATLSCRSSKSLQNVNGNTYLYWFQQKPGQSPQLLIYRMSNLNSGVPDRFSGSGSGTEFTLTISSLEPEDFAVYYCMQHLEYPITFGAGTKLEIKRTVAAPSVFIFPPSDEQLKSGTASVVCLLNNFYPREAKVQWKVDNALQSGNSQESVTEQDSKDSTYSLSSTLTLSKADYEKHKVYACEVTHQGLSSPVTKSFNRGEC
notes: HuAM4G7 IgG1 Fc variant
On to B2, for which the “Fold FcγRIIIaV” value in assay [1] was 0.314 fold. The “Fold FcγRIIaR” value in the assay with FcγRIIaR was found to be 0.166 fold. In addition, the “Fold FcγRIIb” value in assay [2] amounted to 0.351 fold. Besides, in assay [3], the “Fold FcγRIIaH” value is 0.0486 fold. Moreover, in assay [4], the “Fold FcγRI” value is 0.0179 fold.

B3: L234E/S267E/L328F (antibody, human IgG1, kappa)
heavy: EVQLVESGGGLVKPGGSLKLSCAASGYTFTSYVMHWVRQAPGKGLEWIGYINPYNDGTKYNEKFQGRVTISSDKSISTAYMELSSLRSEDTAMYYCARGTYYYGTRVFDYWGQGTLVTVSSASTKGPSVFPLAPSSKSTSGGTAALGCLVKDYFPEPVTVSWNSGALTSGVHTFPAVLQSSGLYSLSSVVTVPSSSLGTQTYICNVNHKPSNTKVDKKVEPKSCDKTHTCPPCPAPEELGGPSVFLFPPKPKDTLMISRTPEVTCVVVDVEHEDPEVKFNWYVDGVEVHNAKTKPREEQYNSTYRVVSVLTVLHQDWLNGKEYKCKVSNKAFPAPIEKTISKAKGQPREPQVYTLPPSREEMTKNQVSLTCLVKGFYPSDIAVEWESNGQPENNYKTTPPVLDSDGSFFLYSKLTVDKSRWQQGNVFSCSVMHEALHNHYTQKSLSLSPGK
light: DIVMTQSPATLSLSPGERATLSCRSSKSLQNVNGNTYLYWFQQKPGQSPQLLIYRMSNLNSGVPDRFSGSGSGTEFTLTISSLEPEDFAVYYCMQHLEYPITFGAGTKLEIKRTVAAPSVFIFPPSDEQLKSGTASVVCLLNNFYPREAKVQWKVDNALQSGNSQESVTEQDSKDSTYSLSSTLTLSKADYEKHKVYACEVTHQGLSSPVTKSFNRGEC
notes: HuAM4G7 IgG1 Fc variant
B3: in assay [1], the binding result was “no binding”. The “Fold FcγRIIaR” value in the assay with FcγRIIaR was 174 fold. Further, the “Fold FcγRIIb” value in assay [2] was 195 fold. Also, in assay [3], the “Fold FcγRIIaH” value came to 0.0725 fold. For the same molecule, in assay [4], the “Fold FcγRI” value was 0.0425 fold.

B4: L234E/S267E (antibody, human IgG1, kappa)
heavy: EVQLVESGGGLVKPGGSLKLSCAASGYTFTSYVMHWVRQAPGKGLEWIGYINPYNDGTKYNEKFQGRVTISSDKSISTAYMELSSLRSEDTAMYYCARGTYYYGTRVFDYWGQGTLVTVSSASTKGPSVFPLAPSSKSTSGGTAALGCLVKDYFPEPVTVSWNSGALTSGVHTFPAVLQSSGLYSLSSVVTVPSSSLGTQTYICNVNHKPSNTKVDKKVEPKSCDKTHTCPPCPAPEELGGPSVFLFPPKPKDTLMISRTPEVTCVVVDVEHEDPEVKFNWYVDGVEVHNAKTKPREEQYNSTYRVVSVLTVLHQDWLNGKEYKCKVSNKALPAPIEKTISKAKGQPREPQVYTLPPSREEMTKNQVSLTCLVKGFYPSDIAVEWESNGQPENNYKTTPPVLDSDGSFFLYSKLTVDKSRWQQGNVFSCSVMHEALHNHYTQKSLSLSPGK
light: DIVMTQSPATLSLSPGERATLSCRSSKSLQNVNGNTYLYWFQQKPGQSPQLLIYRMSNLNSGVPDRFSGSGSGTEFTLTISSLEPEDFAVYYCMQHLEYPITFGAGTKLEIKRTVAAPSVFIFPPSDEQLKSGTASVVCLLNNFYPREAKVQWKVDNALQSGNSQESVTEQDSKDSTYSLSSTLTLSKADYEKHKVYACEVTHQGLSSPVTKSFNRGEC
notes: HuAM4G7 IgG1 Fc variant
As for B4, the binding result in assay [1] and in assay [3] was “no binding” throughout. The “Fold FcγRIIaR” value with FcγRIIaR was found to be 10.7 fold. Besides, the “Fold FcγRIIb” value in assay [2] is 15.1 fold. The “Fold FcγRI” value in assay [4] is 0.131 fold.

B5: L235D/S267E (antibody, human IgG1, kappa)
heavy: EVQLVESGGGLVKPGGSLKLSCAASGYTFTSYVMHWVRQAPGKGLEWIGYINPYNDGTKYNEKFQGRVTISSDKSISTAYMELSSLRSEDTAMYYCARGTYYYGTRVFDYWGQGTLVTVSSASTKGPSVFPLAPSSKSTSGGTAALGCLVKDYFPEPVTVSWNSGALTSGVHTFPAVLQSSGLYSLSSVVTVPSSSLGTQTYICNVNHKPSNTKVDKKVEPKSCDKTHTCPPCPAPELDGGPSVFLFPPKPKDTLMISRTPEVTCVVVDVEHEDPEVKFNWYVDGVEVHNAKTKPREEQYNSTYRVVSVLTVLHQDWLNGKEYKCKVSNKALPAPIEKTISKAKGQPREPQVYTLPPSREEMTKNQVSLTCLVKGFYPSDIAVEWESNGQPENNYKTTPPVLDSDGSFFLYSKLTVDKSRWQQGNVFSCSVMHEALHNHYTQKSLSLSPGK
light: DIVMTQSPATLSLSPGERATLSCRSSKSLQNVNGNTYLYWFQQKPGQSPQLLIYRMSNLNSGVPDRFSGSGSGTEFTLTISSLEPEDFAVYYCMQHLEYPITFGAGTKLEIKRTVAAPSVFIFPPSDEQLKSGTASVVCLLNNFYPREAKVQWKVDNALQSGNSQESVTEQDSKDSTYSLSSTLTLSKADYEKHKVYACEVTHQGLSSPVTKSFNRGEC
notes: HuAM4G7 IgG1 Fc variant
Consider B5, for which the binding result in assay [1] and in assay [3] was “no binding” in each case. The “Fold FcγRIIaR” value in the assay with FcγRIIaR worked out at 13 fold. Besides, the “Fold FcγRIIb” value in assay [2] is 16.7 fold. In addition, in assay [4], the “Fold FcγRI” value was 0.00039 fold.

B6: L234F (antibody, human IgG1, kappa)
heavy: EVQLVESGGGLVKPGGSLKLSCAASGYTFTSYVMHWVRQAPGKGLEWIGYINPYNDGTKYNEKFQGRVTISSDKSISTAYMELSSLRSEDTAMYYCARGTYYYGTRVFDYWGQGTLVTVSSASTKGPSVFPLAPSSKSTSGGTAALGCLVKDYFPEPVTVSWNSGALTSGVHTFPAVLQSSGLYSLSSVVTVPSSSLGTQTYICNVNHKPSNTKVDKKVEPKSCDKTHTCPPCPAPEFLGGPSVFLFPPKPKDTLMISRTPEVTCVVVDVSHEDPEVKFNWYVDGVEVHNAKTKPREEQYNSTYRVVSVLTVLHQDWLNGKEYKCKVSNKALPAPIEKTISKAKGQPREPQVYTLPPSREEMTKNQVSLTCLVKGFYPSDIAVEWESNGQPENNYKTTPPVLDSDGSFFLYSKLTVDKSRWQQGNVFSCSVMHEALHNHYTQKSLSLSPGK
light: DIVMTQSPATLSLSPGERATLSCRSSKSLQNVNGNTYLYWFQQKPGQSPQLLIYRMSNLNSGVPDRFSGSGSGTEFTLTISSLEPEDFAVYYCMQHLEYPITFGAGTKLEIKRTVAAPSVFIFPPSDEQLKSGTASVVCLLNNFYPREAKVQWKVDNALQSGNSQESVTEQDSKDSTYSLSSTLTLSKADYEKHKVYACEVTHQGLSSPVTKSFNRGEC
notes: HuAM4G7 IgG1 Fc variant
In the case of B6, the binding result in assay [1] and in assay [3] was “no binding” in each case. Further, the “Fold FcγRIIaR” value with FcγRIIaR amounted to 0.228 fold. For the same molecule, in assay [2], the “Fold FcγRIIb” value stood at 0.409 fold. In addition, the “Fold FcγRI” value in assay [4] came out at 0.0362 fold.

B7: H268D (antibody, human IgG1, kappa)
heavy: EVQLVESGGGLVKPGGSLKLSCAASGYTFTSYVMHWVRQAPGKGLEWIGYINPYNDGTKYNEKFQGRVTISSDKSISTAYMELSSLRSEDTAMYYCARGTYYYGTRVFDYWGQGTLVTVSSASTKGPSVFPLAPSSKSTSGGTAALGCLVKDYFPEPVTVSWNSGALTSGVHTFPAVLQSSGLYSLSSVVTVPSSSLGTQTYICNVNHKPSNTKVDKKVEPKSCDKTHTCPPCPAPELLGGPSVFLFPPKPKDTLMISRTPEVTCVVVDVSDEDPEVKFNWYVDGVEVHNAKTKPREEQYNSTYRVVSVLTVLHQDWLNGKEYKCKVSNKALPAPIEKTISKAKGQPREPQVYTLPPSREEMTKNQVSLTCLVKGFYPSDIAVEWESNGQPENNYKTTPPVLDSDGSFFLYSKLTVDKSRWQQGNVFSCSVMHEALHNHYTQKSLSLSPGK
light: DIVMTQSPATLSLSPGERATLSCRSSKSLQNVNGNTYLYWFQQKPGQSPQLLIYRMSNLNSGVPDRFSGSGSGTEFTLTISSLEPEDFAVYYCMQHLEYPITFGAGTKLEIKRTVAAPSVFIFPPSDEQLKSGTASVVCLLNNFYPREAKVQWKVDNALQSGNSQESVTEQDSKDSTYSLSSTLTLSKADYEKHKVYACEVTHQGLSSPVTKSFNRGEC
notes: HuAM4G7 IgG1 Fc variant
Turning to B7, the “Fold FcγRIIIaV” value in assay [1] was 3.08 fold. In the assay with FcγRIIaR, the “Fold FcγRIIaR” value came to 4.19 fold. For the same molecule, the “Fold FcγRIIb” value in assay [2] worked out at 3.06 fold. The “Fold FcγRIIaH” value in assay [3] amounted to 1.89 fold. Moreover, the “Fold FcγRI” value in assay [4] stood at 2.35 fold.

B8: L234F/S267E (antibody, human IgG1, kappa)
heavy: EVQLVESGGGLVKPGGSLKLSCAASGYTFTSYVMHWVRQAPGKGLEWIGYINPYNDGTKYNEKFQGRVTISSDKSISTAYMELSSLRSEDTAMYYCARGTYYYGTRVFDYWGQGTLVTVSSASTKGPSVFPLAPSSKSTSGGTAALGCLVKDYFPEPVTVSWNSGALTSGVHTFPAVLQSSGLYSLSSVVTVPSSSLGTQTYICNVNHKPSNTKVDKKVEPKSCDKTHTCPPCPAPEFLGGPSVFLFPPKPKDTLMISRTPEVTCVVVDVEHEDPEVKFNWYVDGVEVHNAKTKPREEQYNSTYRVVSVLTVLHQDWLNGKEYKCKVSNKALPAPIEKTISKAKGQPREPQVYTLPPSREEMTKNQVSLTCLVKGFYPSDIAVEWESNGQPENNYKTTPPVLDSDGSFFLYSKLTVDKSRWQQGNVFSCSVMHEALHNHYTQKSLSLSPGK
light: DIVMTQSPATLSLSPGERATLSCRSSKSLQNVNGNTYLYWFQQKPGQSPQLLIYRMSNLNSGVPDRFSGSGSGTEFTLTISSLEPEDFAVYYCMQHLEYPITFGAGTKLEIKRTVAAPSVFIFPPSDEQLKSGTASVVCLLNNFYPREAKVQWKVDNALQSGNSQESVTEQDSKDSTYSLSSTLTLSKADYEKHKVYACEVTHQGLSSPVTKSFNRGEC
notes: HuAM4G7 IgG1 Fc variant
In the case of B8, the “Fold FcγRIIIaV” value in assay [1] amounted to 0.0938 fold. Further, in the assay with FcγRIIaR, the “Fold FcγRIIaR” value was 20.7 fold. Also, the “Fold FcγRIIb” value in assay [2] amounted to 26.4 fold. Besides, in assay [3], the “Fold FcγRIIaH” value is 0.509 fold. The “Fold FcγRI” value in assay [4] was found to be 0.661 fold.

B9: H268E (antibody, human IgG1, kappa)
heavy: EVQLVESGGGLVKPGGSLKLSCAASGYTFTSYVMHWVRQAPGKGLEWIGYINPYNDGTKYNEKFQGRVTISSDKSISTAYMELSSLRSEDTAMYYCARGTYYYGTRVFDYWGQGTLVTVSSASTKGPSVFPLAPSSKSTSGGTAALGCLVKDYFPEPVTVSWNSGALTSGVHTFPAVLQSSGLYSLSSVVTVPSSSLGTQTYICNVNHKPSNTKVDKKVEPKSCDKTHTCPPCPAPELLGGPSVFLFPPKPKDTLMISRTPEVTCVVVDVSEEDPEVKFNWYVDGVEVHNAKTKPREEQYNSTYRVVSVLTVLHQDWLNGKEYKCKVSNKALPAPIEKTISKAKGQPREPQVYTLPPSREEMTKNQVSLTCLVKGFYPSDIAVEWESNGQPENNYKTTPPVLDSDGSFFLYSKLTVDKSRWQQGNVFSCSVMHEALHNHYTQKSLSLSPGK
light: DIVMTQSPATLSLSPGERATLSCRSSKSLQNVNGNTYLYWFQQKPGQSPQLLIYRMSNLNSGVPDRFSGSGSGTEFTLTISSLEPEDFAVYYCMQHLEYPITFGAGTKLEIKRTVAAPSVFIFPPSDEQLKSGTASVVCLLNNFYPREAKVQWKVDNALQSGNSQESVTEQDSKDSTYSLSSTLTLSKADYEKHKVYACEVTHQGLSSPVTKSFNRGEC
notes: HuAM4G7 IgG1 Fc variant
As for B9, in assay [1], the “Fold FcγRIIIaV” value worked out at 2.19 fold. The “Fold FcγRIIaR” value with FcγRIIaR stood at 3.19 fold. Moreover, in assay [2], the “Fold FcγRIIb” value amounted to 2.62 fold. Further, the “Fold FcγRIIaH” value in assay [3] is 1.43 fold. Also, the “Fold FcγRI” value in assay [4] is 2.74 fold.
